Laboratory results published in a protein production outcome set (Wang et al. 2014).

Assay: label from the status in PepcDB records
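Further: failed if final PepcDB status was selected cloned or expressed and not failed if soluble or beyond.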

| Sequence | protein production |
| --- | --- |
| MWLMSHDMLAIIWFGLWGVIWTVYFILDGYALGNGMIFPFVTKDRQERNQLQEAIGPFWGGNEVWLITAGGATFAAFPVTYANMFSYLYTPLFLVLLALFARAAGLEFMHKDDSPIWQKTCKWAFAIGSFLIAFLFGVTFANLYYGLQIGKNGYEGNLLSLLNHYGILGGLFFTAIFVVSGALWVMIKTTGEVSDRAYKIARPFSMAAAIILAIFYVATANRTNLFQNFTEYPVLFILPVLAMLMSVLALIMVYKHKIGLAFTFVCLTIAMFMTTGFAGMFPRMLPSRINDAYSTTLYNAAGSQLNLKIMFFVAMVMVPIVIGYQLWSYSIFKNKIHKDSAKGYH | failed |
| MWLYYLQVVMDMRVYVEGYGCVLNTADTEIIKNSLKKHGFEVVNNLEEADIAIINTCVVRLETENRMIYRINELKNLGKEVVVAGCLPKALKNKVKGFLHIYPREAHKAGEILKNYVEKHYRMPYIEEDINKTLYKKLDYLKPSLITPLPICEGCIGNCSYCIVKIARGGLISYPREKIVNKAKELINKGAKCLLITAQDTACYGFDIGDNLANLLNELTQIKGEFIMRVGMMHAKNAELILDELIEVYQNEKVGKFLHLPLQSGDDEILKRMKRGYTVDEFKDIVNEFRRKIKNLCFTTDIIVGFPGETEEQFQNTLEVLRELKPDYIHGAKYSQRKGTEAAKMKQIDTKIRKRRSEILDKLRRELSYLNNKKYIGKAMKVLVLDEGKGYTDNFKVVKFEGGEVGEFRKVKITDAKTFGLKGELILLEHHHHHH | not failed |
| MWMPPRPEEVARKLRRLGFVERMAKGGHRLYTHPDGRIVVVPFHSGELPKGTFKRILRDAGLTEEEFHNL | not failed |
| MWSVTGALTVAVPPTAAACRTKPFLISSSFPKQTKKLHLSSPSLSLPSSHFSSSFKTAATSIEQQSSVNKGESTKYHFLVANAKFMLDEEEHFQEQLFERLRYFGERELVQDFWLVIEPKFLDNFPKITQRLRRPAVALVSTNGTWITFMKLRLDRVLYDSFEATSLDEALASNPTTLEFDKPKNWVAPYPKYEPGWWDTFLPKVTQESAV | failed |
| MWTYSEYIIFFGIYSFIGWVLETIFASVNDKKIVNRGFLTGFFCPIYGFGAILTVQCSRMVGLSFKNPIISLISSVIFSIFLVTFLEYVTGFILEAIFNCKWWDYSNDAANIHGYICLKYSLLWGMLAFLLVQTIHPLISKMVFNISATTKEKVSIFLLVYFMIDTIKSVIDALNLRQAIMEYSNFSINKYRERILKYKRLIIAFPRLIILNRDIRRIVNDRFYKIKLEIKSKIQELF | failed |
| MWYTVQPGDSLYTISQRFGVTIAQIKSANQLTSDIIYVGQRLYIPIGIQAPVVYTVRPGDTLYLIARRYNTTVDSLMALNNLSSTELRIGQQLTIPLYTEAVVNVGTANIRRGPGTNFGIITRMTNGARLPVIGFSNNWYQVRLYNGREGWISGSIVTRNVYSGRRPITGVLGFYTLEEGPTLPSSFTSFANNTGQLSSTALFMFRISAANPTTIEKFGEFTDQDVRNLVAIAHRNNVKIMPVVHNLLYRPGGTTLAKNVVKTLVSDPRNRNAFALNLVNLIERYGFDGVNIDIEDVFIEDSDNLSLLYTEISEVLRPRGYFFSASVPSRVSDEPFNPFSDPFNYSVIGRAVDEFVVMLYNEFGWPGSPPGPAVTIGWMERVLRYTMSKMPRDKIMAAVSVFGFDFNLTTGRNTYVTYQSAINLARRYNSEIIFNEERQTPMFTYRDAQGNQHEVWFEDARSLRSKIQLAWELGIKGVALWRLGMEDPNIWPMLRNEVVVRKF | failed |
| MWYYFQPKRLCHNSFMIPEKLLTYTKTIFEYSHSTVYIKDKNFHYQYMNNRGLKQLQLQEKDIMGMPDKALPFGKYAHFYNSHDYSAMEEIIYFQLDDCITKNGEKIFALSHKLPLKDEDGKTHGVIGFTKFMNLHQLMNNLNSKNTFLTPNLKINVNVDDWLKTTINLSRREMEVLYYFLQGKSIKLIAPLLHITERTVIFHLNNIKSKWGCYNKEDIYTKSFEKGLKNLTIIWDLLAMRS | failed |
| MYAGRRDPSHVGIVMVGSPATATLILNDKVVVDLEGETLRLENGDAIALRPQAFAVLRHLVQNANRLVSKAELLEAVWGGAAVTDDSLVQCIHEIRRALGDERYAVLATVSRRGYRLSLERSDESALGGPSIAVLPFATMSGGEPNDYFADGLVEDIITNLSKIPGLFVIARNSSFGFRGEKADLRTIAAELRVRYLLQGSLRQSGGRLRIYAQLVDGASATHVWADRFEGAATDVFDLQDRLTEQIVGSIEPSVRRAEIERAHRKRPESLDAYDLYLRALPHAHANTPAQTDKALQLLARSIELQPDYVAAHGYAAWCYEQRYLRNGLDPADKAAALSHADIALGINSDDPQAMSIGAFVRANLTRDYDAAVEVLDRALAWNNNSTLAFGFSALVSAHSERHQRAVEHAHKALRLSPLDDPLSYHPYCALALTHLFAGAFADAARYAALAVRANPGFSIPYAYLAASHVGLGNVEAAHSAARRLIEVAPNFSVGGYVRTNLFQPYLMDALAAALRKAGLPE | failed |
| MYCRMEFNFFMNDVVQMARKEMVESGYDQLTTPEEVDEVLKEKGTVLVMVNSVCGCAGGIARPAAAYMKNYDKKPDRFVTVFAGQDKEATARAREYFKGYAPSSPSFALLKDGEIQMMVERHEIEGHEPIQVVQKLEKAFDQYCS | failed |
| MYCWNPELYAFSSSAQKSWGIELLTKFPLKGNERVLDVGCGDGKLSAEIAKRLPEGSVLGIDLSEAMVCFAKNHYPKEQFPNLSFMLMDAGNVPFESEFDVIFSNAALHWIKEPKAIETVLKGFLKSLRPEGKLLAQFGGRGNAAEVLLVLNSMLEDEKWSPYFGNFVFPYGFYGPEEYGKWLKNAGFSVRRAELYSKDMTLKGKEGLSGWFASTWHPFTQRVPENLKEEFIDELAVNFIKLHPLDNEGYVHIRMVRLEIEADIEK | failed |
| MYEDNAACIAQLKDGYIKGDRTKHILPKFFFTHDLQKSGDVRVLQIRSNDNLSDLFTKALPTATFKKLVYRIGLRRLKDLDEYTHKGE | failed |
| MYEIKGHHHISMVTKNANENNHFYKNVLGLRRVKMTVNQDDPSMYHLFYGDKTGSPGTELSFFEIPLVGRTYRGTNAITRIGLLVPSEDSLHYWKERFEKFDVKHSEMTTYANRPALQFEDAEGLRLVLLVSNGEKVEHWETWEKSEVPAKHQIQGMGSVELTVRRLDKMASTLTEIFGYTEVSRNDQEAIFQSIKGEAFGEIVVKYLDGPTEKPGRGSIHHLAIRVKNDAELAYWEEQVKQRGFHSSGIIDRFYFKSLYFRESNGILFEIATDGPGFTVDGDVEHLGEKLDLPPFLEDQRAEIEANLAPIEEK | not failed |
| MYELVSPVNPLAVLRYIGHLLLVFSAVLLVPVLAAFVLGETDAAVIYGSSALVTAGTGFLLQKVLPDFELEIKEALILAALTFPLCSLVSAVPMAFSTGMPFLDAYFECVSGLTTTGLSLAPPSPTRLFFFTRSWLQWIGGIGIIVLVLGILIRPGTTAFRLYRVNFGESRIRPSVITTARTLGTVYLVLTLLSLLLLLFSGMPFYDAVCHTLSSISTGGFSTQAGSIGAYGGFLIPFLITVSCIMGAISFSLYPEVLKEPGTLIRDPQVRYLFGLSLLGTALFVLTLSGGEGGPELFHMMPDAVFQVVSALTGTGFSTIDLAPLSDASKGFLSAIMCIGGSIGSTTGGIKLFRLIVIVQLIKLVFYRFFLPREAITPLKVKSQVVDPDDFYRIMTYVLLYLAVLVFSAFIFMFYGINSADAIFETSSALATAGLSTGVTTPGMPSLLKLVLCADMLLGRVEIVPLFILLLPRTWFEINRNTGEKRSSKDTA | failed |
| MYENKIVPLQMDRRKYLQSCVENMSITFVLFGTINIFFNLLINLINIGRINYEHFFKLFSITSGLWIVIILVQITSYLFSSGFFENLATIFLHDNERNKGDIWNIKSIGMFLINIITLGWLSIFSFYGIFSYIINSFDLINNFMLSTTILNFSVNLLFVLNQFLYFLFKVHEIRNIEFHNCLIHFLPGFSRMLESIVLTVKSKIMDNLSKNKNFVKAKNKKRFIDHNSYPYGDQ | failed |
| MYFLLNLVGLIVIMAVVFLCSPQKKKIKWRPIITLIVLELLITWFMLGTKVGSWAIGKIGDFFTWLIACASDGIAFAFPSVMANETVDFFFSALLPIIFIVTFFDILTYFGILPWLIDKIGWVISKASRLPKLESFFSIQMMFLGNTEALAVIRQQLTVLSNNRLLTFGLMSMSSISGSIIGSYLSMVPATYVFTAIPLNCLNALIIANLLNPVHVPEDEDIIYTPPKEEKKDFFSTISNSMLVGMNMVIVILAMVIGYVALTSAVNGILGVFVHGLTNQTIFAYLFSPFAFLLGLPVHDAMYVAQLMGMKLATNEFVAMLDLKNNLKSLPPHTVAVATTFLTSFANFSTVGMIYGTYNSILDGEKSTVIGRNVWKLLVSGIAVSLLSAAIVGLFVW | failed |
